Data from PMC7463755, “C7-Prenylation of Tryptophan-Containing Cyclic Dipeptides by 7-Dimethylallyl Tryptophan Synthase Significantly Increases the Anticancer and Antimicrobial Activities” (Molecules, 2020).

How the values were obtained:
Assay in all cases: HPLC product formation, Michaelis-Menten
Type in all cases: biochemical, Aspergillus fumigatus
[1] = substrate: O=C1N[C@@H](Cc2c[nH]c3ccccc23)C(=O)N[C@H]1Cc1c[nH]c2ccccc12; settings: 2 mM DMAPP, 5 mM CaCl2, 37 °C, prenyl acceptor
Description: (§1) HPLC product formation, Michaelis-Menten on 7-DMATS (7-dimethylallyl tryptophan synthase)

[2] = substrate: O=C1N[C@@H](Cc2c[nH]c3ccccc23)C(=O)N[C@H]1Cc1ccccc1; settings: 2 mM DMAPP, 5 mM CaCl2, 37 °C, prenyl acceptor
Description: as §1

[3] = substrate: C[C@@H]1NC(=O)[C@H](Cc2c[nH]c3ccccc23)NC1=O; settings: 2 mM DMAPP, 5 mM CaCl2, 37 °C, prenyl acceptor
Description: as §1

[4] = substrate: CC(C)=CCOP(=O)(O)OP(=O)(O)O; settings: 1 mM 1a (cyclo-L-Trp-Gly), 5 mM CaCl2, 37 °C, prenyl donor
Description: as §1

[5] = substrate: O=C1CNC(=O)[C@H](Cc2c[nH]c3ccccc23)N1; settings: 2 mM DMAPP, 5 mM CaCl2, 37 °C, prenyl acceptor
Description: as §1

[6] = substrate: O=C1N[C@@H](Cc2c[nH]c3ccccc23)C(=O)N[C@H]1Cc1ccc(O)cc1; settings: 2 mM DMAPP, 5 mM CaCl2, 37 °C, prenyl acceptor
Description: as §1

[7] = substrate: CC(C)C[C@@H]1NC(=O)[C@H](Cc2c[nH]c3ccccc23)NC1=O; settings: 2 mM DMAPP, 5 mM CaCl2, 37 °C, prenyl acceptor
Description: as §1

[8] = substrate: [H][C@@]12CCCN1C(=O)[C@H](Cc1c[nH]c3ccccc13)NC2=O; settings: 2 mM DMAPP, 5 mM CaCl2, 37 °C, prenyl acceptor
Description: as §1

B1: 7-DMATS (7-dimethylallyl tryptophan synthase) (Aspergillus fumigatus Af293) (protein)
chain: MSIGAEIDSLVPAPPGLNGTAAGYPAKTQKELSNGDFDAHDGLSLAQLTPYDVLTAALPLPAPASSTGFWWRETGPVMSKLLAKANYPLYTHYKYLMLYHTHILPLLGPRPPLENSTHPSPSNAPWRSFLTDDFTPLEPSWNVNGNSEAQSTIRLGIEPIGFEAGAAADPFNQAAVTQFMHSYEATEVGATLTLFEHFRNDMFVGPETYAALRAKIPEGEHTTQSFLAFDLDAGRVTTKAYFFPILMSLKTGQSTTKVVSDSILHLALKSEVWGVQTIAAMSVMEAWIGSYGGAAKTEMISVDCVNEADSRIKIYVRMPHTSLRKVKEAYCLGGRLTDENTKEGLKLLDELWRTVFGIDDEDAELPQNSHRTAGTIFNFELRPGKWFPEPKVYLPVRHYCESDMQIASRLQTFFGRLGWHNMEKDYCKHLEDLFPHHPLSSSTGTHTFLSFSYKKQKGVYMTMYYNLRVYST
notes: recombinant, overproduced in E. coli and purified as in Kremer et al; vector pQE60 named
- Km [1]: 225.8 µM
- Vmax [1]: 0.0459 µM/min
- kcat [1]: 0.0413 s⁻¹
- kcat/Km [1]: 183 M⁻¹ s⁻¹
- Km [2]: 102.9 µM
- Vmax [2]: 0.0359 µM/min
- kcat [2]: 0.0323 s⁻¹
- kcat/Km [2]: 314 M⁻¹ s⁻¹
- Km [3]: 867.8 µM
- Vmax [3]: 0.0141 µM/min
- kcat [3]: 0.0127 s⁻¹
- kcat/Km [3]: 14.6 M⁻¹ s⁻¹
- Km [4]: 79.6 µM
- Vmax [4]: 0.072 µM/min
- kcat [4]: 0.0693 s⁻¹
- kcat/Km [4]: 871 M⁻¹ s⁻¹
- Km [5]: 169.7 µM
- Vmax [5]: 0.145 µM/min
- kcat [5]: 0.131 s⁻¹
- kcat/Km [5]: 770 M⁻¹ s⁻¹
- Km [6]: 562.4 µM
- Vmax [6]: 0.0515 µM/min
- kcat [6]: 0.0464 s⁻¹
- kcat/Km [6]: 82.4 M⁻¹ s⁻¹
- Km [7]: 823.2 µM
- Vmax [7]: 0.0654 µM/min
- kcat [7]: 0.0586 s⁻¹
- kcat/Km [7]: 71.2 M⁻¹ s⁻¹
- Km [8]: 880.1 µM
- Vmax [8]: 0.0228 µM/min
- kcat [8]: 0.0205 s⁻¹
- kcat/Km [8]: 23.3 M⁻¹ s⁻¹
